Molecular target: HLA-A*02:01
Test: IEDB peptide-MHC binding, purified MHC/competitive/radioactivity; ≥ and ≤ were set here for values at or beyond the usual limits of such assays
Conditions: source organism: Homo sapiens

Row | Sequence | IC50 [nM]
1 | ALLAGLVSL | 76.3
2 | AVIGALLAV | 17.9
3 | FLCWGPFFL | 38.5
4 | FLLRWEQEI | 25.6
5 | FLPWHRLFL | 112
6 | FLPWHRLFLL | 205
7 | FLRNQPLTFA | 139
8 | HLAVIGALL | 106
9 | LLAGLVSLL | 95.2
10 | NMVPFFPPV | 3.9
11 | RIWSWLLGA | 100
12 | RLLGSLNST | 167
13 | RLMKQDFSV | 46.3
14 | SLDDYNHLV | 26.3
15 | SLHNLVHSFL | 263
16 | SVMDPLIYA | 83.3
17 | VLTALLAGL | 82
18 | VMGTLVALV | 27.8
19 | VVMGTLVAL | 66.7
20 | WLLGAAMVGA | 32.1
21 | YAIDLPVSV | 15.6
22 | YVITTQHWL | 104

From the Immune Epitope Database (IEDB)
